Source: patent US9404087B2, “Insulin producing cells derived from pluripotent stem cells” (Kadimastem Ltd., priority 2010, dated 2016)

Assays:
Format in all cases: cell-based
human ES cells = assay: Indirect immunofluorescence of definitive endoderm markers after Activin A treatment
Procedure: On day one, three wells of human ES cell colonies (grown on Corning 6×well plate for 4 days) detached by collagenase were collected into a 15 ml tube, and colonies washed twice by low speed centrifugation in differentiation medium A (DMEM/F12, 2% KOSR, 2 mM glutmine, 1×NEAA, 100 μM βMEtOH, 1 mM NaPyruvate and penicillin and streptomycin (PS)).
After all the hES clusters had been collected and washed, the clusters were suspended in 1.5 ml/well of differentiation medium A1, (i.e. differentiation medium A including 100 ng/ml recombinant human Activin A (Preprotech) and 25 ng/ml recombinant Wnt 3 (R&D), 2% knock-out serum replacement and 2 mg/ml bovine serum albumin (BSA, cell culture tested SIGMA)). 450-500 colonies/well were seeded in Costar 6×well plates which had been coated with 0.1% porcine gelatin (Sigma) 1 day before. Alternatively, about 3000 colonies were seeded on 10 cm diameter plates. Plates were left in the incubator (37° C., 5% CO2) for 2 days without medium change.
On day 3, the medium was changed to differentiation medium A2 (DMEM/F12, 2% KOSR, 2 mM glut, 1×NEAA, 100 μM βMEtOH, 1 mM NaPyr and 2% Fetal Calf Serum (FCS)) containing 100 ng/ml Activin A and 2 mg/ml BSA. At this stage, clusters still floated and many single cells were visible. The plates were tilted so that clusters fell to the bottom edge of the well and the old medium was removed leaving clusters in 300 μl medium that is completed with 1.2 ml of medium A2. The collected culture medium that contained a few clusters was centrifuged at 900 rpm for 5 minutes. The pellet was re-suspended in 1.5 ml medium A2 and added to one of the wells. On day 4, most clusters adhered to the plate and the culture medium was changed similarly as on day 3, to differentiation medium A3 (DMEM/F12, 2 mM glutamine, 1×NEAA, 100 μM βMEtOH, 1 mM NaPyr but with 0.2% FCS) that contained 100 ng/ml Activin A and 2 mg/ml BSA. Cells were left in the medium A3 for 2 days.
Cells were fixed (4% paraformaldehyde in Ca^2+ and Mg^2+ free PBS for 20 minutes), washed ×3 with PBS and blocked with 10% horse serum in PBS. The reaction with the primary antibody (Ab) was performed in 10% horse serum with or without 1% BSA. Secondary antibodies (Either donkey anti mouse; donkey anti rabbit; donkey or rabbit anti-goat that are conjugated with fluorescent tags, Alexa 488 or Alexa 566 (Molecular Probes/Invitrogen) or with Cy3/donkey anti rabbit DyLight 488 (Jackson laboratories). Pictures were taken with a CCD camera and processed with an imaging program. Mouse monoclonal anti Sox17 Ab (R&D) 10 μg/ml was used with 0.1% Triton X100. Rabbit polyclonal anti FoxA2 (ab40874) (Abcam) was used at the dilution of 1/1000 with 0.1% Triton X100.

human insulin C-peptide = assay: Content of human insulin C-peptide by ELISA in cell fractions
Procedure: On day 20, the medium used in step III of Example 2 was modified to adjust the glucose concentration to 5.5 mM (referred to herein as DM7). For isolation of EpCAM^+ cells by magnetic cell sorting (MACS technology, Miltenyi Biotec), a 10 cm-diameter plate was washed with PBS^−/− (no Ca^++, no Mg^++). Cells were then dissociated by treatment with Accutase (Stempro, 2.5 ml/10 cm plate), for 10 minutes at 37° C., and pipetting up and down. The cells were collected in DM7 and an aliquot counted in a NucleoCounter (New Brunswick). Cells were centrifuged at 1,500 rpm (350×g) for 5 minutes and re-suspended in MACS buffer (PBS^−/− with 0.5% BSA, 2 mM EDTA), using 0.3 ml for 50 million cells. Magnetic beads conjugated to anti-EpCAM antibodies (Miltenyi Biotec—CD326 pluripotent stem cells microbeads) were added (0.1 ml beads for 50 million cells). After 30 minutes at 4° C., the cells were washed once in 50 ml of MACS buffer, centrifuged, and finally re-suspended in 0.5 ml MACS buffer (for a maximum of 10^8 cells). […]
Aliquots of the Presort culture and of EpCAM-MACS-separated fractions (from step 7), as well as of re-aggregated clusters (step 8) were analyzed. The number of cells was counted, using the Nucleocounter. After centrifugation at 350×g for 5 minutes, cell pellets were dissolved in M-PER (Mammalian protein extraction reagent, Pierce), typically using 0.1 ml M-PER for 2 million cells, and content of human insulin C-peptide was measured with an ELISA kit (Mercodia, Upsalh, Sweden, ultrasensitive c-peptide kit (minimal detection 5 pM) or Mercodia c-peptide ELISA (minimal detection 90 pM). Samples in M-PER were diluted 3 fold, or more in the kit buffer, and 20 μl of the ⅓ dilution were assayed. Results were expressed per mg total protein (as measured by Bradford assay) and per million cells (counted in a NucleoCounter). […] Human insulin mRNA was quantitated by RT-qPCR (Taq-Man, Applied Biosystems, Step One) using the TATA binding protein (TBP) gene as reference. […]

Human insulin mRNA = Human insulin mRNA by RT-qPCR with TBP as reference
Procedure: Aliquots of the Presort culture and of EpCAM-MACS-separated fractions (from step 7), as well as of re-aggregated clusters (step 8) were analyzed. The number of cells was counted, using the Nucleocounter. After centrifugation at 350×g for 5 minutes, cell pellets were dissolved in M-PER (Mammalian protein extraction reagent, Pierce), typically using 0.1 ml M-PER for 2 million cells, and content of human insulin C-peptide was measured with an ELISA kit (Mercodia, Upsalh, Sweden, ultrasensitive c-peptide kit (minimal detection 5 pM) or Mercodia c-peptide ELISA (minimal detection 90 pM). Samples in M-PER were diluted 3 fold, or more in the kit buffer, and 20 μl of the ⅓ dilution were assayed. Results were expressed per mg total protein (as measured by Bradford assay) and per million cells (counted in a NucleoCounter). Other cell pellets were suspended in 0.7 ml buffer RLT (RNAeasy, Qiagen) per million cells, for RNA extraction. Human insulin mRNA was quantitated by RT-qPCR (Taq-Man, Applied Biosystems, Step One) using the TATA binding protein (TBP) gene as reference. In the same way, proteins and RNA were extracted from entire plates after scraping the cells with a rubber policeman.
Differentiation of hES cells towards a pancreatic lineage: The hES cell cultures were differentiated as detailed in Example 5 and FIG. 15, steps 1-8, and RNA extracted at different steps was subjected to RT-qPCR.
Human ES cells were differentiated according to the scheme illustrated in FIG. 22. Two modifications were made in the procedure detailed in Example 5. Thus, in step 2 and 3, the fetal calf serum was replaced by serum replacement (KOSR, Invitrogen), at the same concentrations (i.e. 2% in step 2, 0.2% in step 3). In addition, in step 5, Noggin (Preprotech) was added at 100 ng/ml. The EpCAM-MACS fractionation was performed as in Example 5.

[1] = five days Activin A conditioning, positive nuclei relative to DAPI nuclei (FIG. 1)

B1: Activin A: recombinant human Activin A (Preprotech), 100 ng/ml (protein, UniProt P08476 311-426, looked up)
Inhibin beta A chain: GLECDGKVNICCKKQFFVSFKDIGWNDWIIAPSGYHANYCEGECPSHIAGTSGSSLSFHSTVINHYRMRGHSPFANLKSCCVPTKLRPMSMLYYDDGQNIIKKDIQNMIVEECGCS
modifications: Inhibin beta A chain
cells anti Oct4 positive (human ES cells; end of 5 days of Activin A treatment): 5%
cells expressing Sox17 and/or FoxA2 (human ES cells; end of 5 days of Activin A treatment, 100 ng/ml): about 75%
yield of cells expressing FoxA2 (human ES cells; [1]): 89%
yield of cells expressing Sox17 (human ES cells; [1]): 98%

B2: Noggin: Noggin (Preprotech) added at 100 ng/ml in step 5 (protein, UniProt Q13253 28-232, looked up)
Noggin: QHYLHIRPAPSDNLPLVDLIEHPDPIFDPKEKDLNETLLRSLLGGHYDPGFMATSPPEDRPGGGGGAAGGAEDLAELDQLLRQRPSGAMPSEIKGLEFSEGLAQGKKQRLSKKLRRKLQMWLWSQTFCPVLYAWNDLGSRFWPRYVKVGSCFSKRSCSVPEGMVCKPSKSVHLTVLRWRCQRRGGQRCGWIPIQYPIISECKCSC
Insulin C-peptide (human insulin C-peptide; Table 4 Expt 1, D 19 (EpCAM+)): 8.15 ng/mg protein
Insulin C-peptide (human insulin C-peptide; Table 4 Expt 1, D 19 (Presort)): 2.9 ng/mg protein
Insulin C-peptide (human insulin C-peptide; Table 4 Expt 1, D 23 (EpCAM+)): 17.5 ng/mg protein
Ratio Insulin mRNA over TBP mRNA (Human insulin mRNA; Table 5 Expt 1, D 19 (EpCAM+)): 0.7
Ratio Insulin mRNA over TBP mRNA (Human insulin mRNA; Table 5 Expt 1, D 19 (Presort)): 0.6
Ratio Insulin mRNA over TBP mRNA (Human insulin mRNA; Table 5 Expt 1, D 23 (EpCAM+)): 0.7
